Patent US20250114463A1, “LIVER-TARGETED DRUG AND USE THEREOF” (HANMI PHARM. CO., LTD., priority 2021, published 2025)
Bridges are numbered along the chain shown (N, C = ends). Where no end group is shown, it is not given here. [ ]: non-standard residue; d: D form. The star is where a group is joined. Acetyl(2-(4-imidazolyl)) = O=C(Cc1c[nH]cn1)*; Aib = CC(C)(N)C(=O)O

T1: human GIP receptor (human, UniProt P48546 22-466)
T1 sequence (looked up): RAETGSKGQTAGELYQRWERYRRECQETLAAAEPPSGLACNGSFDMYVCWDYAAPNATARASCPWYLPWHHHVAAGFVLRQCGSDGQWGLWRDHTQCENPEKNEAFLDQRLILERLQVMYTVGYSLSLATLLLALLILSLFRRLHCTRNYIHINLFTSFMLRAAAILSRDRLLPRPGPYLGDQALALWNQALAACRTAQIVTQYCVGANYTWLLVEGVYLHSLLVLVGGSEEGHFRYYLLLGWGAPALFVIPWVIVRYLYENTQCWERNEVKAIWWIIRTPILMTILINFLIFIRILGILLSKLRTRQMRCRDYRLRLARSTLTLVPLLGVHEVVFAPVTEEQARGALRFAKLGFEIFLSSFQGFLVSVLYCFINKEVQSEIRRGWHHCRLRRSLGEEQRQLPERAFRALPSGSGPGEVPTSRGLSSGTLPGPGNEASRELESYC

B1: triple agonist of SEQ ID NO: 80 (peptide)
peptide: H[Aib]EGTFTSDYSIAMDEIHQKDFVDWLLAEKC
modifications: bridge 16-20; not fully specified (C-terminus)
B2: triple agonist of SEQ ID NO: 7 (peptide)
peptide: H[Aib]QGTFTSDVSKYLDGQAAKEFVAWLLKGC
modifications: not fully specified (C-terminus)
B3: triple agonist of SEQ ID NO: 77 (peptide)
peptide: Y[Aib]QGTFTSDYSKYLDEKAAKDFVQWLLDHHPSSGQPPPSC-NH2
modifications: bridge 16-20
B4: triple agonist of SEQ ID NO: 60 (peptide)
peptide: [Acetyl(2-(4-imidazolyl))][Aib]QGTFTSDYSIAMDEKHCKDFVNWLLNTK
modifications: bridge 16-20; not fully specified (C-terminus)
B5: triple agonist of SEQ ID NO: 61 (peptide)
peptide: [Acetyl(2-(4-imidazolyl))][Aib]QGTFTSDYSIAMDEIACKDFVNWLLNTK
modifications: bridge 16-20; not fully specified (C-terminus)
B6: triple agonist of SEQ ID NO: 66 (peptide)
peptide: Y[Aib]QGTFTSDYSKYLDECRAKDFVQWLLDHHPSSGQPPPS
modifications: bridge 16-20; not fully specified (C-terminus)
B7: triple agonist of SEQ ID NO: 67 (peptide)
peptide: Y[Aib]QGTFTSDYSKYLDECAAKDFVQWLLDHHPSSGQPPPS
modifications: bridge 16-20; not fully specified (C-terminus)
B8: triple agonist of SEQ ID NO: 70 (peptide)
peptide: Y[Aib]QGTFTSDYSKCLDEKRAKDFVQWLLDHHPSSGQPPPS
modifications: bridge 16-20; not fully specified (C-terminus)
B9: triple agonist of SEQ ID NO: 69 (peptide)
peptide: Y[Aib]QGTFTSDYSKCLDERAAKEFVQWLLDHHPSSGQPPPS
modifications: bridge 16-20; not fully specified (C-terminus)
B10: triple agonist of SEQ ID NO: 81 (peptide)
peptide: [Acetyl(2-(4-imidazolyl))][Aib]QGTFTSDYSKYLDEKRQKEFVQWLLNTC
modifications: bridge 16-20; not fully specified (C-terminus)
B11: triple agonist of SEQ ID NO: 72 (peptide)
peptide: Y[Aib]QGTFTSDCSKYLDERAAKDFVQWLLDHHPSSGQPPPS
modifications: bridge 16-20; not fully specified (C-terminus)
B12: triple agonist of SEQ ID NO: 75 (peptide)
peptide: Y[Aib]QGTFTSDYSKYLDEKAAKEFVQWLLDHHPSSGQPPPSC
modifications: bridge 16-20; not fully specified (C-terminus)

The binders below were run against human GCG receptor (human, UniProt P47871 26-477) (assay: cell-based or functional assay).
Sequence of human GCG receptor (P47871 26-477): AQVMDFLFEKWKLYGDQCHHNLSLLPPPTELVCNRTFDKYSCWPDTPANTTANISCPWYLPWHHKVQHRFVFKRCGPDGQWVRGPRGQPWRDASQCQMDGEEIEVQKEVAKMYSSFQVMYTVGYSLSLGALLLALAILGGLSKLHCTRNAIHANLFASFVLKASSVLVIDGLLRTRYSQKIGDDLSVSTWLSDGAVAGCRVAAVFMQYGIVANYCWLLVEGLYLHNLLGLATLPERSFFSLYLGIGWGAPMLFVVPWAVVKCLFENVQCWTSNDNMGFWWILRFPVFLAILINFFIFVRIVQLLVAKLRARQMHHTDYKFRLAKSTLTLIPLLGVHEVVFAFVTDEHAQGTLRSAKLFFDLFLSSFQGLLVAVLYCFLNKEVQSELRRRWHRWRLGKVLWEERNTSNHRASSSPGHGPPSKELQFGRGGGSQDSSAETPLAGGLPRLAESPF

Binder	in vitro Activity Compared to Native Peptide (%), vs Glucagon [%]
B1	0
B2	< 0.1
B3	12.2
B4	< 0.1
B5	< 0.1
B6	172
B7	46.2
B8	71.3
B9	9.6
B10	0.3
B11	1
B12	8.5

What follows are binders tested against T1, human GIP receptor (assay: cell-based or functional assay).

Binder	in vitro Activity Compared to Native Peptide (%), vs GIP [%]
B1	0.1
B2	< 0.1
B3	35.5
B4	8.2
B5	2.8
B6	17.2
B7	39.8
B8	64.4
B9	62.8
B10	< 0.1
B11	1.6
B12	18

Each binder was assayed against human GLP-1 receptor (human, UniProt P43220 24-463) (assay: cell-based or functional assay).

Binder	in vitro Activity Compared to Native Peptide (%), vs GLP-1 [%]
B1	8.1
B2	13.7
B3	38.7
B4	106
B5	59.8
B6	15.8
B7	28.5
B8	15.1
B9	24.3
B10	7.8
B11	11.5
B12	35.1
